For the assay, the target named is soluble His‐tagged human LRP4 (low‐density lipoprotein receptor‐related protein 4) (human) (UniProt O75096). The experiment in a line: SPR.
Chain of UniProt O75096 (O75096 21-1725): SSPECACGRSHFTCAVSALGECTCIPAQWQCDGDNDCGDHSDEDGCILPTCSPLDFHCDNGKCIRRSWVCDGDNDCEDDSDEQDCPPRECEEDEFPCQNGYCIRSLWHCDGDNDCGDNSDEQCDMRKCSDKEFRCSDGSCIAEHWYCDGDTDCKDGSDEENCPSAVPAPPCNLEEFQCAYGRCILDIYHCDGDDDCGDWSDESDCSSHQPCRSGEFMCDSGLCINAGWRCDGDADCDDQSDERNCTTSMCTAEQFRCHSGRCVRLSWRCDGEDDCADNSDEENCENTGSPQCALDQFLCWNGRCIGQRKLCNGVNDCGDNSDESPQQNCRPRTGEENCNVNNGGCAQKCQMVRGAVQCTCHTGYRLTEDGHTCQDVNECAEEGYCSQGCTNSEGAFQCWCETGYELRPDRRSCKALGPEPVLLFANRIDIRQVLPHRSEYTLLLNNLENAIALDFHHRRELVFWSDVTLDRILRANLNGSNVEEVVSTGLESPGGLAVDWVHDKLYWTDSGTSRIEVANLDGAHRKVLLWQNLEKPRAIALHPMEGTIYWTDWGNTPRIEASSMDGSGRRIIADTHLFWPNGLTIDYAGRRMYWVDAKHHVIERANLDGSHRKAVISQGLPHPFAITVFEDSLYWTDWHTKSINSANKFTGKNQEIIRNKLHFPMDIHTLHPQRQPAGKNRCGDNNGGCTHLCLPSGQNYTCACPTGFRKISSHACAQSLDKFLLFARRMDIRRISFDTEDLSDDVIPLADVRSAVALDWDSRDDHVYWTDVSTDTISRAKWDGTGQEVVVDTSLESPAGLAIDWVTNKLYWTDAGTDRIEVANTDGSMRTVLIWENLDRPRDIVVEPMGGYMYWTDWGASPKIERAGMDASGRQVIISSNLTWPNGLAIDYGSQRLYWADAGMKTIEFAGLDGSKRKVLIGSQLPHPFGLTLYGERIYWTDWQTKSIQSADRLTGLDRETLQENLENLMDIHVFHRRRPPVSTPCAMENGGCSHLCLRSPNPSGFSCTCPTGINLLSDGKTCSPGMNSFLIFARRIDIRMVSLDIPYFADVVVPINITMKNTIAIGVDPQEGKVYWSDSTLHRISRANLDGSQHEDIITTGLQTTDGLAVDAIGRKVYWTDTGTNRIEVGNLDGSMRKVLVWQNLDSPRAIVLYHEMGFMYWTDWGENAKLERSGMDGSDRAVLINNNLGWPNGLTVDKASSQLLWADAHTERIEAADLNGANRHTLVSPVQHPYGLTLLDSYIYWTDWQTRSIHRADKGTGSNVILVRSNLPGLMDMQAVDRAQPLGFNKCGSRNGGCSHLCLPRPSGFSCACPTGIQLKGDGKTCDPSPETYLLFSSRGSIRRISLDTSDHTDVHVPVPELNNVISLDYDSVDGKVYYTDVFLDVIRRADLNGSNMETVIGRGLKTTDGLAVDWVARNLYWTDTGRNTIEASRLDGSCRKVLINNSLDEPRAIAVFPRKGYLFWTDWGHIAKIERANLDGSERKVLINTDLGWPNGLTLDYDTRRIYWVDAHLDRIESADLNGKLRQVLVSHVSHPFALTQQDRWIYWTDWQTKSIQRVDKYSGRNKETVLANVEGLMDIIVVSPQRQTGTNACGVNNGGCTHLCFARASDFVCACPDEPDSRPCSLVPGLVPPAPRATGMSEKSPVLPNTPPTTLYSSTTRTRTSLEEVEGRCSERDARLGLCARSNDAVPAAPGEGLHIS
By Kd is commonly meant the free concentration of one partner at which half of the binding sites on the other are occupied at equilibrium, for simple one-to-one binding. Read a low Kd as higher affinity. Substance “purified soluble Scl_(K75E) (natural protein)” came in with a Kd of 35.9 µM. Then “purified soluble Scl_(K75Q) (natural protein)”, with 20.2 µM. Then “purified soluble Scl_(V136D) (natural protein)”, with 7.52 µM.

The values above are taken from PMC11808424.
